From PMC9482650, “Quantitative fragmentomics allow affinity mapping of interactomes” (Nature Communications, 2022)

T1: SIPA1L2, Q9P2F8
T1 sequence (Q9P2F8 945-1036, limits assumed, looked up): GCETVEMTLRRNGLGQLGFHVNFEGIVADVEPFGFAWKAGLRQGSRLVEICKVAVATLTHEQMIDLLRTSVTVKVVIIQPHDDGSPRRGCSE

T2: GRIP1_5, Q9Y3R0
T2 sequence (Q9Y3R0 568-668, limits assumed, looked up): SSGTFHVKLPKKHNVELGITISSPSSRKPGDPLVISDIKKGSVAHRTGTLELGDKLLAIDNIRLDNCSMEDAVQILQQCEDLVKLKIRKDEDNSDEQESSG

T3: LIN7C, Q9NUP9
T3 sequence (Q9NUP9 88-185, limits assumed, looked up): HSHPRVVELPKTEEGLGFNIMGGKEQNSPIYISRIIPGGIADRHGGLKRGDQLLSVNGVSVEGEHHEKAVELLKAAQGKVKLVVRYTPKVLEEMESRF

T4: DFNB31_3, Q9P202
T4 sequence (Q9P202 811-907, limits assumed, looked up): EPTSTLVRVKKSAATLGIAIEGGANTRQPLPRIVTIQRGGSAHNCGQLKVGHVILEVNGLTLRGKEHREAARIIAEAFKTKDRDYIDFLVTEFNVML

T5: NHERF3_4, Q5T2W1
T5 sequence (Q5T2W1 373-468, limits assumed, looked up): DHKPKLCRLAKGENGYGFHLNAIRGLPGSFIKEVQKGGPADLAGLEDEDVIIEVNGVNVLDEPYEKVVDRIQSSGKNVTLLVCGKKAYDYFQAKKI

T6: LNX2_2, Q8N448
T6 sequence (Q8N448 334-432, limits assumed, looked up): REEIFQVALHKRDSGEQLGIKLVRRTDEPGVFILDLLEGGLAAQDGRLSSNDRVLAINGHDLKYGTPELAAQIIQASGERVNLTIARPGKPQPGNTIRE

T7: DVL3, Q92997
T7 sequence (Q92997 244-331, limits assumed, looked up): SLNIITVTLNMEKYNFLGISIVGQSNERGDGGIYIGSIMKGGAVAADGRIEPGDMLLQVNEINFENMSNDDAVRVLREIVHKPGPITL

T8: DLG3_2, Q92796
T8 sequence (Q92796 221-321, limits assumed, looked up): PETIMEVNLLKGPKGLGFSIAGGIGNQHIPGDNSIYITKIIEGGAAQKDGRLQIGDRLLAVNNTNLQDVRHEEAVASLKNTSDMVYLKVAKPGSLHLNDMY

T9: SHANK1, Q9Y566
T9 sequence (Q9Y566 658-767, limits assumed, looked up): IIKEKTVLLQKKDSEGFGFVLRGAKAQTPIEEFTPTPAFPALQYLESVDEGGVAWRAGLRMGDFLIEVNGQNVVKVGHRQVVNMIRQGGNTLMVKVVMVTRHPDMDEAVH

T10: NHERF3_3, Q5T2W1
T10 sequence (Q5T2W1 238-333, limits assumed, looked up): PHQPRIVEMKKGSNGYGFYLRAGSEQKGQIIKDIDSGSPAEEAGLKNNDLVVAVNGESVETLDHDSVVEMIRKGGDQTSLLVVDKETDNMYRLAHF

T11: SNTB1, Q13884
T11 sequence (Q13884 107-205, limits assumed, looked up): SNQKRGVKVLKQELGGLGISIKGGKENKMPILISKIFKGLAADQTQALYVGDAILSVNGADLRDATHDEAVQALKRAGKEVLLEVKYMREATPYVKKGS

T12: MPDZ_5, O75970
T12 sequence (O75970 695-796, limits assumed, looked up): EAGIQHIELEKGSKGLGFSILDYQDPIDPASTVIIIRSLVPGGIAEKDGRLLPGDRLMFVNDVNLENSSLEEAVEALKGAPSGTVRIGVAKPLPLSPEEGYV


What was measured:
Assay in all cases: holdup assay
Parameters in all cases: key: below the threshold = too weak to quantify, mostly under pKd 3.1 to 4
Settings in all cases: plain residues with an end cap or a label only (N-terminal biotin on a linker: ado-ado)
SIPA1L2, Q9P2F8 = molecular target: T1, SIPA1L2, Q9P2F8
TJP1_2, Q07157 = molecular target: TJP1_2, Q07157
Inadl_2, Q8NI35 = molecular target: Inadl_2, Q8NI35
GRIP1_5, Q9Y3R0 = molecular target: T2, GRIP1_5, Q9Y3R0
LIN7C, Q9NUP9 = molecular target: T3, LIN7C, Q9NUP9
GORASP1, Q9BQQ3 = molecular target: GORASP1, Q9BQQ3
DFNB31_3, Q9P202 = molecular target: T4, DFNB31_3, Q9P202
NHERF3_4, Q5T2W1 = molecular target: T5, NHERF3_4, Q5T2W1
LNX2_2, Q8N448 = molecular target: T6, LNX2_2, Q8N448
GORASP2, Q9H8Y8 = molecular target: GORASP2, Q9H8Y8
GRID2IP_1, A4D2P6 = molecular target: GRID2IP_1, A4D2P6
GRIP2_3, Q9C0E4 = molecular target: GRIP2_3, Q9C0E4
SCRIB_2, Q14160 = molecular target: SCRIB_2, Q14160
DVL3, Q92997 = molecular target: T7, DVL3, Q92997
FRMPD4, Q14CM0 = molecular target: FRMPD4, Q14CM0
DLG3_2, Q92796 = molecular target: T8, DLG3_2, Q92796
SHANK1, Q9Y566 = molecular target: T9, SHANK1, Q9Y566
MAGI3_2, Q5TCQ9 = molecular target: MAGI3_2, Q5TCQ9
FRMPD2_3, Q68DX3 = molecular target: FRMPD2_3, Q68DX3
AHNAK1, Q09666 = molecular target: AHNAK1, Q09666
PICK1, Q9NRD5 = molecular target: PICK1, Q9NRD5
LNX1_2, Q8TBB1 = molecular target: LNX1_2, Q8TBB1
NHERF3_3, Q5T2W1 = molecular target: T10, NHERF3_3, Q5T2W1
SNTB1, Q13884 = molecular target: T11, SNTB1, Q13884
MPDZ_5, O75970 = molecular target: T12, MPDZ_5, O75970

Sequence of GRIP2_3, Q9C0E4 (Q9C0E4 238-339): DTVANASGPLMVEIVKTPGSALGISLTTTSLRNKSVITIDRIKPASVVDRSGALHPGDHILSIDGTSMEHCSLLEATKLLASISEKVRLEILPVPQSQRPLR
Sequence of GRID2IP_1, A4D2P6 (A4D2P6 1-87): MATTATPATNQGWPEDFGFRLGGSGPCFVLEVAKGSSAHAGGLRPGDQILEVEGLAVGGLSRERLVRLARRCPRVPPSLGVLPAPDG
Sequence of FRMPD4, Q14CM0 (Q14CM0 67-160): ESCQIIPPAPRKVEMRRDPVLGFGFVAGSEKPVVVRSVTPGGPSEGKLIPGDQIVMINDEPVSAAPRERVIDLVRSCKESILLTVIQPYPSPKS
Sequence of AHNAK1, Q09666 (Q09666 4-100): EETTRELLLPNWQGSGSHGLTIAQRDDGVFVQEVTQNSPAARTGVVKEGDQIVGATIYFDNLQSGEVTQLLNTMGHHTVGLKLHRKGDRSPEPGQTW
Sequence of FRMPD2_3, Q68DX3 (Q68DX3 1073-1166): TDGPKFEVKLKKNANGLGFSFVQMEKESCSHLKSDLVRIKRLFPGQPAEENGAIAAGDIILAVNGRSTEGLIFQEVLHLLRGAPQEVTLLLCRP
Sequence of LNX1_2, Q8TBB1 (Q8TBB1 371-470): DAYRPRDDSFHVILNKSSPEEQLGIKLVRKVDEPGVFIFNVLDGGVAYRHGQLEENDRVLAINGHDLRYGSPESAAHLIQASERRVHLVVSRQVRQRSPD
Sequence of Inadl_2, Q8NI35 (Q8NI35 238-335): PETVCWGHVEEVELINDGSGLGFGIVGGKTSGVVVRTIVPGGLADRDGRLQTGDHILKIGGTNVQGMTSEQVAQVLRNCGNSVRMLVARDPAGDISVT
Sequence of GORASP1, Q9BQQ3 (Q9BQQ3 1-208): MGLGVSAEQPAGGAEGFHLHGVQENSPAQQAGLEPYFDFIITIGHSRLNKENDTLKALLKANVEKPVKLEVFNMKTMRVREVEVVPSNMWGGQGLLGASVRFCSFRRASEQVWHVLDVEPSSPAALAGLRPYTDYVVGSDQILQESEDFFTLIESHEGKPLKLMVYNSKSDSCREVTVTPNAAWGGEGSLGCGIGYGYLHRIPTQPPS
Sequence of PICK1, Q9NRD5 (Q9NRD5 17-115): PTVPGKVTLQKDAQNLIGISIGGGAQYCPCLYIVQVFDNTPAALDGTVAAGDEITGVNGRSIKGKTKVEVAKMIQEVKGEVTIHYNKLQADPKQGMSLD
Sequence of MAGI3_2, Q5TCQ9 (Q5TCQ9 398-503): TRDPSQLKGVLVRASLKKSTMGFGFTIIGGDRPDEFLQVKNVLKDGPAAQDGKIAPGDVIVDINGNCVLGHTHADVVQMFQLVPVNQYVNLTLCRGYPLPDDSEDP
Sequence of TJP1_2, Q07157 (Q07157 181-274): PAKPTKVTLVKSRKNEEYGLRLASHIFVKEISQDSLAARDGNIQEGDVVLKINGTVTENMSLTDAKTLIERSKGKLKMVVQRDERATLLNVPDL
Sequence of SCRIB_2, Q14160 (Q14160 857-960): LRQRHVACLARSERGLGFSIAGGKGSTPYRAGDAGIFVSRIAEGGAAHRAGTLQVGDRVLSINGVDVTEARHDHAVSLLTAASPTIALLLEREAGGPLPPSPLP

Binder | pKd (SIPA1L2, Q9P2F8) | pKd (TJP1_2, Q07157) | pKd (Inadl_2, Q8NI35) | pKd (GRIP1_5, Q9Y3R0) | pKd (LIN7C, Q9NUP9) | pKd (GORASP1, Q9BQQ3) | pKd (DFNB31_3, Q9P202) | pKd (NHERF3_4, Q5T2W1) | pKd (LNX2_2, Q8N448) | pKd (GORASP2, Q9H8Y8) | pKd (GRID2IP_1, A4D2P6) | pKd (GRIP2_3, Q9C0E4) | pKd (SCRIB_2, Q14160) | pKd (DVL3, Q92997) | pKd (FRMPD4, Q14CM0) | pKd (DLG3_2, Q92796) | pKd (SHANK1, Q9Y566) | pKd (MAGI3_2, Q5TCQ9) | pKd (FRMPD2_3, Q68DX3) | pKd (AHNAK1, Q09666) | also measured
RFQQRMQTHV [KIRREL1, Q96J84] | below the threshold | below the threshold | below the threshold | below the threshold | 3.69 | below the threshold | 3.62 | below the threshold | 4.08 | 4.12 | below the threshold | below the threshold | 4.1 | below the threshold | below the threshold | 4.69 | 4.16 | 5.37 | below the threshold | below the threshold | pKd (PICK1, Q9NRD5): below the threshold; pKd (LNX1_2, Q8TBB1): below the threshold; pKd (NHERF3_3, Q5T2W1): below the threshold; pKd (SNTB1, Q13884): below the threshold; pKd (MPDZ_5, O75970): below the threshold
EPQYQPGENL [SRC, P12931] | below the threshold | below the threshold | below the threshold | below the threshold | below the threshold | below the threshold | below the threshold | below the threshold | below the threshold | below the threshold | below the threshold | below the threshold | below the threshold | below the threshold | 4.12 | below the threshold | below the threshold | below the threshold | below the threshold | below the threshold | pKd (PICK1, Q9NRD5): below the threshold; pKd (LNX1_2, Q8TBB1): below the threshold; pKd (NHERF3_3, Q5T2W1): below the threshold; pKd (SNTB1, Q13884): 3.58; pKd (MPDZ_5, O75970): below the threshold
REEPDHSTEV [CCRL2, O00421] | below the threshold | below the threshold | below the threshold | below the threshold | below the threshold | below the threshold | below the threshold | below the threshold | 4.09 | 3.48 | below the threshold | below the threshold | 4.32 | 3.48 | 3.47 | 4.59 | 4.13 | below the threshold | below the threshold | below the threshold | pKd (PICK1, Q9NRD5): below the threshold; pKd (LNX1_2, Q8TBB1): 3.65; pKd (NHERF3_3, Q5T2W1): below the threshold; pKd (SNTB1, Q13884): 4.36; pKd (MPDZ_5, O75970): below the threshold
QSYPSKHDYV [CLDN18, P56856] | 3.53 | 3.61 | below the threshold | below the threshold | below the threshold | 3.74 | below the threshold | 3.48 | 4.17 | 4.13 | below the threshold | below the threshold | below the threshold | 3.7 | 3.57 | below the threshold | below the threshold | below the threshold | below the threshold | below the threshold | pKd (PICK1, Q9NRD5): 4.26; pKd (LNX1_2, Q8TBB1): 3.69; pKd (NHERF3_3, Q5T2W1): below the threshold; pKd (SNTB1, Q13884): below the threshold; pKd (MPDZ_5, O75970): below the threshold
